Assay results: patent US20190233495A1 (Sanofi, published 2019)
Positions of bridges follow the written chain, without caps; N, C: chain ends. Non-standard residues stand in square brackets, D forms with d. Chains are numbered I, II in the order given. No end group written: not given here. Nle = CCCC[C@H](N)C(=O)O; Aib = CC(C)(N)C(=O)O

T1: RXFP1 receptor (UniProt Q9HBX9 1-757, limits assumed)
T1 sequence (looked up): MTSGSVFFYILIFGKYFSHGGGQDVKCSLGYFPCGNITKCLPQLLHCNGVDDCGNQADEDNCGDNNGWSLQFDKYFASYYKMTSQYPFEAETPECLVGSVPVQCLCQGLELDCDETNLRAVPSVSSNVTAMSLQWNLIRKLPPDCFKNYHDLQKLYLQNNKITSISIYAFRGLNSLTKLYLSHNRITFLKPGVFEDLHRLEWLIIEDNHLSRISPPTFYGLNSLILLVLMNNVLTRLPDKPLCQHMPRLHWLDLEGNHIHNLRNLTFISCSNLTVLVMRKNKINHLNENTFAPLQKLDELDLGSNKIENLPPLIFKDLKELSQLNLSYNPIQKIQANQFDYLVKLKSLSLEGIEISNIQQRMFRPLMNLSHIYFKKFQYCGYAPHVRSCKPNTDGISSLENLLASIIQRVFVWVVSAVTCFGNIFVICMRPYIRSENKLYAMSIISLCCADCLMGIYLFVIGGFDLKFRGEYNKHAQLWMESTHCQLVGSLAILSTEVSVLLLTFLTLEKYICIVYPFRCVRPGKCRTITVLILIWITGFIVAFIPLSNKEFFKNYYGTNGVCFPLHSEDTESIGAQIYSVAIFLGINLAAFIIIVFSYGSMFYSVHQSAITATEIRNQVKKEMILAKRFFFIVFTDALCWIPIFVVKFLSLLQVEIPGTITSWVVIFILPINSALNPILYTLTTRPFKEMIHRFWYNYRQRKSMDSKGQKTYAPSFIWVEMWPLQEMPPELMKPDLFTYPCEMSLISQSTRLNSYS

B1: SEQ ID NO: 45 (peptide)
peptide: Ac-LEGREKVRAQI[Aib][Aib]EGMSTWS[Aib]RK-NH2
SMILES: CC[C@H](C)[C@H](NC(=O)[C@H](CCC(N)=O)NC(=O)[C@H](C)NC(=O)[C@H](CCCNC(=N)N)NC(=O)[C@@H](NC(=O)[C@H](CCCCN)NC(=O)[C@H](CCC(=O)O)NC(=O)[C@H](CCCNC(=N)N)NC(=O)CNC(=O)[C@H](CCC(=O)O)NC(=O)[C@H](CC(C)C)NC(C)=O)C(C)C)C(=O)NC(C)(C)C(=O)NC(C)(C)C(=O)N[C@@H](CCC(=O)O)C(=O)NCC(=O)N[C@@H](CCSC)C(=O)N[C@@H](CO)C(=O)N[C@H](C(=O)N[C@@H](Cc1c[nH]c2ccccc12)C(=O)N[C@@H](CO)C(=O)NC(C)(C)C(=O)N[C@@H](CCCNC(=N)N)C(=O)N[C@@H](CCCCN)C(N)=O)[C@@H](C)O
B2: SEQ ID NO: 47 (peptide)
peptide: Ac-LEGREKVRAK(Ac)I[Aib][Aib]EG[Nle]STWS[Aib]RK-NH2
SMILES: CCCC[C@H](NC(=O)CNC(=O)[C@H](CCC(=O)O)NC(=O)C(C)(C)NC(=O)C(C)(C)NC(=O)[C@@H](NC(=O)[C@H](CCCCNC(C)=O)NC(=O)[C@H](C)NC(=O)[C@H](CCCNC(=N)N)NC(=O)[C@@H](NC(=O)[C@H](CCCCN)NC(=O)[C@H](CCC(=O)O)NC(=O)[C@H](CCCNC(=N)N)NC(=O)CNC(=O)[C@H](CCC(=O)O)NC(=O)[C@H](CC(C)C)NC(C)=O)C(C)C)[C@@H](C)CC)C(=O)N[C@@H](CO)C(=O)N[C@H](C(=O)N[C@@H](Cc1c[nH]c2ccccc12)C(=O)N[C@@H](CO)C(=O)NC(C)(C)C(=O)N[C@@H](CCCNC(=N)N)C(=O)N[C@@H](CCCCN)C(N)=O)[C@@H](C)O
B3: SEQ ID NO: 49 (peptide)
peptide: Ac-LEGREKVRRQI[Aib][Aib]EG[Nle]STWS[Aib]RKK-NH2
SMILES: CCCC[C@H](NC(=O)CNC(=O)[C@H](CCC(=O)O)NC(=O)C(C)(C)NC(=O)C(C)(C)NC(=O)[C@@H](NC(=O)[C@H](CCC(N)=O)NC(=O)[C@H](CCCNC(=N)N)NC(=O)[C@H](CCCNC(=N)N)NC(=O)[C@@H](NC(=O)[C@H](CCCCN)NC(=O)[C@H](CCC(=O)O)NC(=O)[C@H](CCCNC(=N)N)NC(=O)CNC(=O)[C@H](CCC(=O)O)NC(=O)[C@H](CC(C)C)NC(C)=O)C(C)C)[C@@H](C)CC)C(=O)N[C@@H](CO)C(=O)N[C@H](C(=O)N[C@@H](Cc1c[nH]c2ccccc12)C(=O)N[C@@H](CO)C(=O)NC(C)(C)C(=O)N[C@@H](CCCNC(=N)N)C(=O)N[C@@H](CCCCN)C(=O)N[C@@H](CCCCN)C(N)=O)[C@@H](C)O
B4: SEQ ID NO: 46 (peptide)
peptide: Ac-LEGREKVRAQI[Aib][Aib]EGMSKWS[Aib]R-NH2
SMILES: CC[C@H](C)[C@H](NC(=O)[C@H](CCC(N)=O)NC(=O)[C@H](C)NC(=O)[C@H](CCCNC(=N)N)NC(=O)[C@@H](NC(=O)[C@H](CCCCN)NC(=O)[C@H](CCC(=O)O)NC(=O)[C@H](CCCNC(=N)N)NC(=O)CNC(=O)[C@H](CCC(=O)O)NC(=O)[C@H](CC(C)C)NC(C)=O)C(C)C)C(=O)NC(C)(C)C(=O)NC(C)(C)C(=O)N[C@@H](CCC(=O)O)C(=O)NCC(=O)N[C@@H](CCSC)C(=O)N[C@@H](CO)C(=O)N[C@@H](CCCCN)C(=O)N[C@@H](Cc1c[nH]c2ccccc12)C(=O)N[C@@H](CO)C(=O)NC(C)(C)C(=O)N[C@@H](CCCNC(=N)N)C(N)=O
B5: SEQ ID NO: 44 (peptide)
peptide: Ac-LEGREKVRAQI[Aib][Aib]EG[Nle]STWS[Aib]RK-NH2
SMILES: CCCC[C@H](NC(=O)CNC(=O)[C@H](CCC(=O)O)NC(=O)C(C)(C)NC(=O)C(C)(C)NC(=O)[C@@H](NC(=O)[C@H](CCC(N)=O)NC(=O)[C@H](C)NC(=O)[C@H](CCCNC(=N)N)NC(=O)[C@@H](NC(=O)[C@H](CCCCN)NC(=O)[C@H](CCC(=O)O)NC(=O)[C@H](CCCNC(=N)N)NC(=O)CNC(=O)[C@H](CCC(=O)O)NC(=O)[C@H](CC(C)C)NC(C)=O)C(C)C)[C@@H](C)CC)C(=O)N[C@@H](CO)C(=O)N[C@H](C(=O)N[C@@H](Cc1c[nH]c2ccccc12)C(=O)N[C@@H](CO)C(=O)NC(C)(C)C(=O)N[C@@H](CCCNC(=N)N)C(=O)N[C@@H](CCCCN)C(N)=O)[C@@H](C)O
B6: SEQ ID NO: 48 (peptide)
peptide: Ac-ELEGREKVRAAI[Aib][Aib]EG[Nle]STWS[Aib]RKK-NH2
SMILES: CCCC[C@H](NC(=O)CNC(=O)[C@H](CCC(=O)O)NC(=O)C(C)(C)NC(=O)C(C)(C)NC(=O)[C@@H](NC(=O)[C@H](C)NC(=O)[C@H](C)NC(=O)[C@H](CCCNC(=N)N)NC(=O)[C@@H](NC(=O)[C@H](CCCCN)NC(=O)[C@H](CCC(=O)O)NC(=O)[C@H](CCCNC(=N)N)NC(=O)CNC(=O)[C@H](CCC(=O)O)NC(=O)[C@H](CC(C)C)NC(=O)[C@H](CCC(=O)O)NC(C)=O)C(C)C)[C@@H](C)CC)C(=O)N[C@@H](CO)C(=O)N[C@H](C(=O)N[C@@H](Cc1c[nH]c2ccccc12)C(=O)N[C@@H](CO)C(=O)NC(C)(C)C(=O)N[C@@H](CCCNC(=N)N)C(=O)N[C@@H](CCCCN)C(=O)N[C@@H](CCCCN)C(N)=O)[C@@H](C)O
B7: Human Relaxin-2 (H2 Relaxin) (ligand)
chain 1: H-QLYSALANKCCHVGCTKRSLARFC-OH
chain 2: H-DSWMEEVIKLCGRELVRAQIAICGMSTWS
modifications: disulfide I:10-I:15, I:11-II:11, I:24-II:23

target: T1, RXFP1 receptor; assay: cell-based or functional assay

Binder | cAMP assay in OVCAR 5 cells EC50 | cAMP assay in OVCAR 5 cells Emax
B1 | 126 nM | 98%
B2 | 117 nM | 94%
B3 | 22.2 nM | 95%
B4 | 26.7 nM | 82%
B5 | 82 nM | 101%
B6 | 19.5 nM | 91%

target: T1, RXFP1 receptor; assay: cell-based or functional assay; remark: another data set of the same source

Binder | cAMP assay in OVCAR 5 cells EC50 | cAMP assay in OVCAR 5 cells Emax
Ac-VIKLSGRELVRAQIAISGMSTWSKKKK-NH2 [KKKK(AcB7-29 C11.23S)] | 206 nM | 84%
Ac-VIKLSGRELVRAQIAISGMSTWSKRSL-NH2 [AcB7-33 C11.23S] | 929 nM | 70%
H-VIKLSGRELVRAQIAISGMSTWSKRSL-NH2 [B7-33 C11.23S] | 1640 nM | 90%

target: T1, RXFP1 receptor; assay: cell-based or functional assay; remark: another data set of the same source

Binder | cAMP assay in OVCAR 5 cells EC50
B7 | 0.1 to 0.3 nM
